Source: patent publication US20140050727A1 (MOCHIDA PHARMACEUTICAL, published 2014)
Substitutions are numbered along the chain they refer to. Numbers in names are those of the source.

T1: Elastase, Human Neutrophil (human, UniProt P08246 30-247, limits assumed)
T1 sequence (looked up): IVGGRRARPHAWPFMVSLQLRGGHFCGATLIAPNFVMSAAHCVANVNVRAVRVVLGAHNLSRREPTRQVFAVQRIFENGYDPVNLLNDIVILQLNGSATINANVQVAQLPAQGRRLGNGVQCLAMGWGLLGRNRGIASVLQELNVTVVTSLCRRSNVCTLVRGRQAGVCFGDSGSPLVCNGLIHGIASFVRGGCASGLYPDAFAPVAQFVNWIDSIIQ

T2: human CD14 (human, UniProt P08571 20-375, limits assumed)
T2 sequence (looked up): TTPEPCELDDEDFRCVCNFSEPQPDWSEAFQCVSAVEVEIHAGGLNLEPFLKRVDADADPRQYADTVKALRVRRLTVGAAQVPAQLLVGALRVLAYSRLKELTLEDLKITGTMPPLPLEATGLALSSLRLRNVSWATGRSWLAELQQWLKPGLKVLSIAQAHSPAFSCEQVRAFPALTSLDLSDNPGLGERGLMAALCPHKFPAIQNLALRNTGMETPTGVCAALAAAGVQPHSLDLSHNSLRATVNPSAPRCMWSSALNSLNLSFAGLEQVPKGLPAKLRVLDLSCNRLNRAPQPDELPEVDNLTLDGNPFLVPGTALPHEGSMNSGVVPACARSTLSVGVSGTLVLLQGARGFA

B1: F1024S-SLPI(D2) with modified linker GSGGGGSGGGGSGGGGS (antibody)
heavy: QIQLVQSGPELKKPGESVKISCKASGYTFTDYAMNWVKQAPGNGLKWMGWINTQTGKPTYADDFKQRFVFSLETSASTAYLQINNLNIEDTATYFCTRSTFYYSSYIYGWYFDFWGPGTMVTVSSASTKGPSVFPLAPCSRSTSESTAALGCLVKDYFPEPVTVSWNSGALTSGVHTFPAVLQSSGLYSLSSVVTVPSSSLGTKTYTCNVDHKPSNTKVDKRVESKYGPPGPSGPAPEFLGGPSVFLFPPKPKDTLMISRTPEVTCVVVDVSQEDPEVQFNWYVDGVEVHNAKTKPREEQFNSTYRVVSVLTVLHQDWLNGKEYKCKVSNKGLPSSIEKTISKAKGQPREPQVYTLPPSQEEMTKNQVSLTCLVKGFYPSDIAVEWESNGQPENNYKTTPPVLDSDGSFFLYSRLTVDKSRWQEGNVFSCSVMHEALHNHYTQKSLSLSLGKGSGGGGSGGGGSGGGGSRRKPGKCPVTYGQCLMLNPPNFCEMDGQCKRDLKCCMGMCGKSCVSPVKA
light: DIVMTQSPTSISISVGERVTMNCKASQNVGSNVDWYQQKTGQSPKLLIYKASNRYTGVPDRFTGSGSGTDFTFTISNMQAVDLAVYYCMQSNTNPPWTFGGGTKLELKRTVAAPSVFIFPPSDEQLKSGTASVVCLLNNFYPREAKVQWKVDNALQSGNSQESVTEQDSKDSTYSLSSTLTLSKADYEKHKVYACEVTHQGLSSPVTKSFNRGEC
B2: F1024S-D2(3) (antibody)
heavy: QIQLVQSGPELKKPGESVKISCKASGYTFTDYAMNWVKQAPGNGLKWMGWINTQTGKPTYADDFKQRFVFSLETSASTAYLQINNLNIEDTATYFCTRSTFYYSSYIYGWYFDFWGPGTMVTVSSASTKGPSVFPLAPCSRSTSESTAALGCLVKDYFPEPVTVSWNSGALTSGVHTFPAVLQSSGLYSLSSVVTVPSSSLGTKTYTCNVDHKPSNTKVDKRVESKYGPPGPSGPAPEFLGGPSVFLFPPKPKDTLMISRTPEVTCVVVDVSQEDPEVQFNWYVDGVEVHNAKTKPREEQFNSTYRVVSVLTVLHQDWLNGKEYKCKVSNKGLPSSIEKTISKAKGQPREPQVYTLPPSQEEMTKNQVSLTCLVKGFYPSDIAVEWESNGQPENNYKTTPPVLDSDGSFFLYSRLTVDKSRWQEGNVFSCSVMHEALHNHYTQKSLSLSLGKGSTVAACNLPIVSGPCRAFIKLWAFDAVKGKCVLFPYGGCQGNGNKFDSEKECREYCGVPGDGDEELLRFSN
light: B1 light
B3: F1024S-SLPI(D1D2) (antibody)
heavy: QIQLVQSGPELKKPGESVKISCKASGYTFTDYAMNWVKQAPGNGLKWMGWINTQTGKPTYADDFKQRFVFSLETSASTAYLQINNLNIEDTATYFCTRSTFYYSSYIYGWYFDFWGPGTMVTVSSASTKGPSVFPLAPCSRSTSESTAALGCLVKDYFPEPVTVSWNSGALTSGVHTFPAVLQSSGLYSLSSVVTVPSSSLGTKTYTCNVDHKPSNTKVDKRVESKYGPPGPSGPAPEFLGGPSVFLFPPKPKDTLMISRTPEVTCVVVDVSQEDPEVQFNWYVDGVEVHNAKTKPREEQFNSTYRVVSVLTVLHQDWLNGKEYKCKVSNKGLPSSIEKTISKAKGQPREPQVYTLPPSQEEMTKNQVSLTCLVKGFYPSDIAVEWESNGQPENNYKTTPPVLDSDGSFFLYSRLTVDKSRWQEGNVFSCSVMHEALHNHYTQKSLSLSLGKGSGKSFKAGVCPPKKSAQCLRYKKPECQSDWQCPGKKRCCPDTCGIKCLDPVDTPNPTRRKPGKCPVTYGQCLMLNPPNFCEMDGQCKRDLKCCMGMCGKSCVSPVKA
light: B1 light
B4: F1024S-SLPI(D2) (antibody)
heavy: QIQLVQSGPELKKPGESVKISCKASGYTFTDYAMNWVKQAPGNGLKWMGWINTQTGKPTYADDFKQRFVFSLETSASTAYLQINNLNIEDTATYFCTRSTFYYSSYIYGWYFDFWGPGTMVTVSSASTKGPSVFPLAPCSRSTSESTAALGCLVKDYFPEPVTVSWNSGALTSGVHTFPAVLQSSGLYSLSSVVTVPSSSLGTKTYTCNVDHKPSNTKVDKRVESKYGPPGPSGPAPEFLGGPSVFLFPPKPKDTLMISRTPEVTCVVVDVSQEDPEVQFNWYVDGVEVHNAKTKPREEQFNSTYRVVSVLTVLHQDWLNGKEYKCKVSNKGLPSSIEKTISKAKGQPREPQVYTLPPSQEEMTKNQVSLTCLVKGFYPSDIAVEWESNGQPENNYKTTPPVLDSDGSFFLYSRLTVDKSRWQEGNVFSCSVMHEALHNHYTQKSLSLSLGKGSRRKPGKCPVTYGQCLMLNPPNFCEMDGQCKRDLKCCMGMCGKSCVSPVKA
light: B1 light
B5: modified F1024S-D2(R11S/R15T/Q19K/Y46D) (antibody)
heavy: B2 heavy with R469T
light: B1 light

target: T1, Elastase, Human Neutrophil; assay: cell-based or functional assay

50% inhibitory concentration (elastase inhibitory activity) [µg/mL] | Binder
11.6 | B1
8.9 | B2
22.5 | B3
26.9 | B4
4.43 | B5

target: Human Factor Xa (human, UniProt P00742 41-488, limits assumed); assay: cell-based or functional assay
Sequence (P00742 41-488 limits assumed): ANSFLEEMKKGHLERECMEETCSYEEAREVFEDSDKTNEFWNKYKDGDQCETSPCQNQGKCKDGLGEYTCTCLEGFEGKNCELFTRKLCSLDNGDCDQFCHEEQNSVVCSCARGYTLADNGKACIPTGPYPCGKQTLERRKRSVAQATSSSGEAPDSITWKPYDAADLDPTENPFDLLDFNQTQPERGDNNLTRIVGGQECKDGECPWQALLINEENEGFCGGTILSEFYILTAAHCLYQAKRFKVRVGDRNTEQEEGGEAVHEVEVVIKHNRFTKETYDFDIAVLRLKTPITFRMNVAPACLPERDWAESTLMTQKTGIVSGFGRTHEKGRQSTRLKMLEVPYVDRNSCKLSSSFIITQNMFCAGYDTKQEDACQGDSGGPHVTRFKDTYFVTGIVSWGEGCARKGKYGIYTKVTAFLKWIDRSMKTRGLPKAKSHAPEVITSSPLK

FXa-inhibiting activity | Binder
~6 times that of polypeptide AN68 | AACNLPIVRGPCRAFIRLWAFDAVKGKCVLFPYGGCQGNGNKFYSEK (other) [polypeptide Q19R]
~10 times that of polypeptide AN68 | AACNLPIVRGPCRAFIKLWAFDAVKGKCVLFPYGGCQGNGNKFESEK (other) [polypeptide Q19K/Y46E]
~3 times that of polypeptide AN68 | AACNLPIVEGPCRAFIQLWAFDAVKGKCVLFPYGGCQGNGNKFESEK (other) [polypeptide R11E/Y46E]
~10 times that of polypeptide AN68 | AACNLPIVRGPCRAFIRLWAFDAVKGKCVLFPYGGCQGNGNKFESEK (other) [polypeptide Q19R/Y46E]
~20 times that of polypeptide AN68 | AVLPQEEEGSGMAACNLPIVRGPCRAFIKLWAFDAVKGKCVLFPYGG (other) [polypeptide Q19K/Y46D]
~13 times that of polypeptide AN68 | AVLPQEEEGSGMAACNLPIVEGPCRAFIKLWAFDAVKGKCVLFPYGG (other) [polypeptide R11E/Q19K/Y46E]
~16 times that of polypeptide AN68 | AVLPQEEEGSGMAACNLPIVLGPCRAFIKLWAFDAVKGKCVLFPYGG (other) [polypeptide R11L/Q19K/Y46D]
~5 times that of polypeptide AN68 | AVLPQEEEGSGMAACNLPIVDGPCRAFIKLWAFDAVKGKCVLFPYGG (other) [polypeptide R11D/Q19K/Y46D]
~18 times that of polypeptide AN68 | AVLPQEEEGSGMAACNLPIVRGPCRAFIRLWAFDAVKGKCVLFPYGG (other) [polypeptide Q19R/Y46D]
~20 times that of polypeptide AN68 | AVLPQEEEGSGMAACNLPIVQGPCRAFIKLWAFDAVKGKCVLFPYGG (other) [polypeptide R11Q/Q19K/Y46D]

target: T2, human CD14; assay: cell-based or functional assay

IC50 for inhibition of LPS-induced E-Selectin expression in HUVEC [µg/mL] | IC50 for inhibition of LPS-induced IL-6 production in HUVEC [µg/mL] | IC50 for inhibition of LPS-induced TNF-α production in human peripheral blood mononuclear cells [µg/mL] | IC50 for inhibition of LPS-induced procoagulant activity (PCA) in human peripheral blood mononuclear cells [µg/mL] | Binder
0.43 | 0.38 | 0.58 | 20.9 | B2
